# Laboratory results from the nanobody polyreactivity screen of Harvey et al. (2022).
# Assay: yeast display, Sf9 membrane polyspecificity reagent, FACS + sequencing; frameworks hold sequencing errors
# Method in brief: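 Galactose-induced (36–48 hours) yeast carrying a synthetic nanobody display library were exposed to 10% biotinylated, detergent-solubilized Sf9 membrane reagent at 4 °C for 1 hour. FACS followed streptavidin microbead enrichment, using low and high (top ~1%) gates for expression (anti-HA) and reagent binding (streptavidin). Colony PCR, MiSeq 2 × 250 sequencing and CDR-length filtering followed. Labels for polyreactivity reflect the gate of origin.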
row,Sequence,polyreactivity (PSR sort gate)
1,QVQLVESGGGLVQAGGSLRLSCAASGRIFRSYAMGWYRQAPGKERELVAAISRSGGSTYYADSVKGRFTISRDNAKNTVYLQMNSLKPEDTAVYYCAGVYTYPLGYYHYTYDYWGQGTQVTVSS,low polyreactivity
2,QVQLVESGGGLVQAGGSLRLSCAASGRIFRSYAMGWYRQAPGKERELVAAITWSGGSTYYADSVKGRFTISRDNAKNTVYLQMHSLKPEDTAVYYCARVVTKKYSHTGYEYWGQGTQVTVSS,high polyreactivity
3,QVQLVESGGGLVQAGGSLRLSCAASGRIFRSYAMGWYRQAPGKERELVAAMTWGGGRTYYADSVKGRFTISRDNAKNTVYLQMNSLKPEDTAVYYCNTLAYPYYRGSKYDYWGQGTQVTVSS,high polyreactivity
4,QVQLVESGGGLVQAGGSLRLSCAASGRIFRTNAMGWYRQAPGKERELVAAISDSGADTSYADSVKGRFTISRDNAKNTVYLQMNSLKPEDTAVYYCNRGRVYYRYLKDYDYWGQGTQVTVSS,low polyreactivity
5,QVQLVESGGGLVQAGGSLRLSCAASGRIFRTYALGWYRQAPGKERELVAAINSGGTTYYADSVKGRFTISRDNAKNTVYLQLNSLKPEDTAVYYCNAEYYYAFLRLWYDYWGQGTQVTVSS,high polyreactivity
6,QVQLVESGGGLVQAGGSLRLSCAASGRIFRTYAMGWYRQAPGKERELVAAINSVDRTYYADSVKGRFTISRDNAKNTVYLQMNSLKPEDTAVYYCAARGYRGHDEFGYWGQGTQVTVSS,high polyreactivity
7,QVQLVESGGGLVQAGGSLRLSCAASGRIFRTYAMGWYRQAPGKERELVAAIRSGGSTKYADSVKGRFTISRDNAKNTVYLQMNSLKPEDTAVYYCAAAVLGRYSAGDGYWGQGTQVTVSS,low polyreactivity
8,QVQLVESGGGLVQAGGSLRLSCAASGRIFRVYAMGWYRQAPGKERELVAAISSYGGSTYYADSVKGRFTISRDNAKNTVYLQMNSLIPEDTAVYYCAAESSPDGYFLSDYWGQGTQVTVSS,low polyreactivity
9,QVQLVESGGGLVQAGGSLRLSCAASGRIFRWYALGWYRQAPGKERELVAAISSRGGSTYYADSVKGRFTISRDNAKNTVYLQLNSLKPEDTAVYYCAADTSGWQPRYDYWGQGTQVTVSS,high polyreactivity
10,QVQLVESGGGLVQAGGSLRLSCAASGRIFRWYAMGWYRQAPGKERELVAAISYSGGSTYYADSVKGRFTISRDNAKNTVYLQMNSLKPEDTAVYYCAAATYYKFDYWGQGTQVTVSW,high polyreactivity
11,QVQLVESGGGLVQAGGSLRLSCAASGRIFRWYAMGWYRQAPGKERELVAGINYGGGRTYYADSVKGRFTISRDNAKNTVYLQMNSLNPEDTAVYYCAAGISGHYYWGQGTQVTVSS,high polyreactivity
12,QVQLVESGGGLVQAGGSLRLSCAASGRIFRWYAMGWYRQAPGKERELVATISSSGRTNYADSVKGRFTISRDNAKNTVYLQMNSLKPEETAVYYCNADGGDWFGYVGMDYWGQGTQVTVSS,high polyreactivity
13,QVQLVESGGGLVQAGGSLRLSCAASGRIFRYNAMGWYRQAPGKEREFVAAITSSGAGTHYADSVKGRFTISRDNAKNTVYLQMNSLKPEDTAVYYCNARGYYSKNSYDYYTGDYWGQGTQVTVSS,high polyreactivity
14,QVQLVESGGGLVQAGGSLRLSCAASGRIFRYNAMGWYRQAPGKERELVAAISSVGSTNYADSVKGRFTISRDNAKNTVYLQMNSLKPEDTAVYYCNAVVRSYVKTYRYYKVDYWGQGTQVTVSS,high polyreactivity
15,QVQLVESGGGLVQAGGSLRLSCAASGRIFRYNVMGWYRQPPGKERELVAAIRWSGGSTYYADSVKGRFTISRDNAKNTVYLQMNSLKPEDTAVYYCNTVGRWRGYDYWGQGTQVTVSS,high polyreactivity
16,QVQLVESGGGLVQAGGSLRLSCAASGRIFRYYAMGWSRQAPGKERELVAAISSSGGSTYYADSVKGRFTISRDNAKNTVYLQMNSLKPEDTAVYYCAGVFRLGVGYEYWGQGTQVTVSS,high polyreactivity
17,QVQLVESGGGLVQAGGSLRLSCAASGRIFRYYAMGWYRQAPGKERELDAAISRSGGSTYYADSVKGRFTISRDNAKNTVYLQMNSLKPEDTAVYYCAARVYRYGAMDYWGQGTQVTVSS,high polyreactivity
18,QVQLVESGGGLVQAGGSLRLSCAASGRIFRYYAMGWYRQAPGKERELVAAISSGGRTYYADSVKGRFPISRDNEKNTVYLQMNSLKPEDTAVYYCNTYTYAGYNYWGQGTQVTVSS,high polyreactivity
19,QVQLVESGGGLVQAGGSLRLSCAASGRIFRYYAMGWYRQAPGKERELVAAISSGVGNTYYADSVKGRFTISRDNAKNTVYVQMNSLKPEDTAVFYCKAKWRKFGTVRYDYWGQGTQVTVSS,high polyreactivity
20,QVQLVESGGGLVQAGGSLRLSCAASGRIFRYYAMGWYRQAPGKERELVAAISSSGGSTYYADSVKGRFTISRDNAKNTVYLQMNSLKPEDTAVYYCNTVGSVGKKRDYWGQGTQVTVSS,high polyreactivity
21,QVQLVESGGGLVQAGGSLRLSCAASGRIFRYYAMGWYRQAPGKERELVAAITRGGSTNYADSVKGRFTISRDNAKNTVYLQMNSLIPEDTAVYYCNKYPYFVYGDYGYWGQGTQVTVSS,high polyreactivity
22,QVQLVESGGGLVQAGGSLRLSCAASGRIFRYYAMGWYRQAPGKERELVAAITWSGGSTYYADSVKGRFTISRDNAKNTVYLQMNSLKPEDTAVYYCNAKSYQPFHGDYWGQGTQVTVSS,low polyreactivity

row,Sequence,polyreactivity (PSR sort gate)
1,QVQLVESGGGLVQAGGSLRLSCAASGRIFRYYAMGWYRQAPGKERELVADIWSDGSTYYADSVKGRFTISRDNAKNTVYLQMNSLKPEDTAVYYCNAARTYYWYSAKFDYWGQGTQVTVSS,high polyreactivity
2,QVQLVESGGGLVQAGGSLRLSCAASGRIFRYYAMGWYRQAPGKERELVATISGRGGSTYYADSVKGRFTISRDNAKNTVYREMNSLKPEDTAVYYCYTVSTRYIYDYWGQGTQVTVSS,high polyreactivity
3,QVQLVESGGGLVQAGGSLRLSCAASGRIFRYYAMGWYSQAPGQDRELVAAISWSGGSTYYADSVKGRFTISRDKAKNTVYLQMHSLKPEDTAVYYCNKVPLGLEGDYWGQGTQVTVSS,high polyreactivity
4,QVQLVESGGGLVQAGGSLRLSCAASGRIFRYYDMGWYRQAPGKERELVAAITSDGSTKDADSVKGRFTISRDNAKNTVYLQMNSLKQEDTAVYYCNAEVLPTWYSPQLDYWGQGTQVTVSS,low polyreactivity
5,QVQLVESGGGLVQAGGSLRLSCAASGRIFRYYTMGWYRQAPGKERELVAAITARGTRTYYADSVKGRFTISRDNAKNTVYLQMNSLKPEETSVYYCAADRYIYFAPSMDYWGQGTQVTVSS,high polyreactivity
6,QVQLVESGGGLVQAGGSLRLSCAASGRIFRYYTRGWYRQAPGKERELVAAISSSGGRTYYADSVKGRFTISRDYANNTVYLQMNSLKPEDTAVYYCNTDGPTWYPTYDYWGQGTQVTVSS,high polyreactivity
7,QVQLVESGGGLVQAGGSLRLSCAASGRIFRYYVMGWNRQAPGKERELVATITSGGSTNYADSVKGRFTISRDNAKNTVYLQMNSLKPEDTAVYYCAAEKVSGQGEMDYWGQGTQVTVSS,low polyreactivity
8,QVQLVESGGGLVQAGGSLRLSCAASGRIFRYYVMGWYRQAPGKERELVATITSGGSTNYADSVKGRFTISRDNAKNTVYLQMYSLKPEDTAVYYCARGTSTCTYYWYGYWGQGTQVTVSS,low polyreactivity
9,QVQLVESGGGLVQAGGSLRLSCAASGRIFSAYAMGWFRQAPGKERELLAAISKRGGRTYYADSVKGRFTISRDNATNTVYLQTNSLKPEDTSVYYCNKRYLDGHDLDYCGQGTQVTVSS,high polyreactivity
10,QVQLVESGGGLVQAGGSLRLSCAASGRIFSDYAMGRYRQAPGKDRELVATITTGDSTNYADSVKGRFTISRDNAKNTVYLQMNSLKPEDTAVYYCNADRFADYDYWGQGTQVTVSS,low polyreactivity
11,QVQLVESGGGLVQAGGSLRLSCAASGRIFSFNAMGWYRQAPGKERELVASGGSTYADSVKGRFTISRDNAKNTVYLQMNSLKPEDTAVYYCAADPFYYFPSPFDYWGQGTQVTVSS,low polyreactivity
12,QVQLVESGGGLVQAGGSLRLSCAASGRIFSFNTMGWYRQAPGKERELVAAITSSSARTYYADSVKGRFTISRDNAKNTVYLQMNSLKPEDTAVYYCAADSTLSRYDYWGQGTQVTVSS,high polyreactivity
13,QVQLVESGGGLVQAGGSLRLSCAASGRIFSFYAMGWYRQSPGKERELVATISDGGATTYYADSVKGRFTISRDNAKNTVYLQMNSLKPEDTAVYYCAADKRGRPGLPDYDSWGQGTQVTVSS,low polyreactivity
14,QVQLVESGGGLVQAGGSLRLSCAASGRIFSFYVMGWYRQEPGKERELVAAIDNGGGSTYYADSVKGRFTISRDNAKNTVYLQMNSLKPEDTAVYYCAAEVYDSDSEYYYWGQGTQVTVSS,low polyreactivity
15,QVQLVESGGGLVQAGGSLRLSCAASGRIFSGNTMGWYRPAPGKERELVAAISKSGGRTYYADSVKGRFPISRVNAKNTVYLQMNSLKPEDTAVYYCNADYRSHYLYDYWGQGTQVTVSS,low polyreactivity
16,QVQLVESGGGLVQAGGSLRLSCAASGRIFSGNTMGWYRQAPGKERELVAAISKSGGRTYYADSVKGRFTISRDNAKNTVYLQMNSLKPEDTAVYYCNADYRSHYLYDYWGQGTQVTVSS,low polyreactivity
17,QVQLVESGGGLVQAGGSLRLSCAASGRIFSGNVMGWYRQAPGKERELVAAISRSGGSTYYADSVKGRFTISRDNAKNTVYLQMNSLKPEDTAVYYCADVPTSNSFRSSFYYWGHGTQVTVSS,high polyreactivity
18,QVQLVESGGGLVQAGGSLRLSCAASGRIFSGYAIGWYRQAPGKERELVAAITSGGSTNYADSVKGRFTISRDNAKNTVYLQMNSLKPEDTAVYYCAADYREVSTTAYYYWGQGTQVTVSS,low polyreactivity
19,QVQLVESGGGLVQAGGSLRLSCAASGRIFSGYAMGWYRQAPGKERELVAAISQRGGSTTYADSVKGRFTISRDNAKKTVDLQMNSLKPEDTAVYDCAKRYTYPSGYDYWGQGTQVTVSS,low polyreactivity
20,QVQLVESGGGLVQAGGSLRLSCAASGRIFSGYVMGWYRQAPGKERELVAAISRSGGSTYYADSVKGRFTISRDNAKNTVYLQMNSLKPEDTAVYYCNAYYRYFRSIYDSWGQGTQVTVSS,high polyreactivity
21,QVQLVESGGGLVQAGGSLRLSCAASGRIFSGYVMGWYRQAPGKERELVAVISRSGGSTYYADSVKGRFTISRDNAKNTVYLLMNSLKPEDTAVYYCAAKHIDGSRGYVYWGQGTQVTVSS,low polyreactivity
